Results from publication PMC5750235, “Trapping IgE in a closed conformation by mimicking CD23 binding prevents and disrupts FcεRI interaction” (Nature Communications, 2018).

Legend:
IgE Fc Cε3–4 fragment = molecular target: T1, IgE Fc Cε3–4 fragment (human, UniProt P01854, (N-acetylglucosamine)2(mannose)5 hepta-saccharide on N394); assay: crystal structure; 026 sdab:IgE Fc complex, 5 mg/ml in 20 mM HEPES, 50 mM NaCl, pH 7.2; sitting drops, 0.1 M imidazole pH 7.0, 11-12% PEG 20,000; 3.4 Å; conditions: both partners purified
T1 construct: human IgE heavy chain constant region, domains Cε3 and Cε4, as found in the crystals; Not a designed construct: the crystals held this fragment and not the Cε2–4 that was expected; also called IgE Cε3–4; source: HEK-293; a small fraction in the purified IgE Fc Cε2–4 preparation, crystallized with 026 sdab

[1] = molecular target: the molecule itself; assay: as above

Binder | stoichiometry N (IgE Fc Cε3–4 fragment) [sdab per IgE Fc] | binding result [1]
026 sdab (VHH, llama-derived, humanized single-domain antibody; Synthetic gene; also called sdab 026; anti-IgE sdab 026) VHH: EVQLLESGGGLVQPGGSLRLSCAASGFTFGNYDMAWVRQAPGKRPEWVSSIDTGGDITHYADSVKGRFTISRDNAKNTLYLQMNSLRPEDTAVYWCATDEEYALGPNEFDYYGQGTLVTVSS | 2 | 
IgE Fc Cε3–4 fragment (domain or fragment, human, (N-acetylglucosamine)2(mannose)5 hepta-saccharide on N394, human IgE heavy chain constant region, domains Cε3 and Cε4, as found in the crystals; Not a designed construct: the crystals held this fragment and not the Cε2–4 that was expected; also called IgE Cε3–4; source: HEK-293; a small fraction in the purified IgE Fc Cε2–4 preparation, crystallized with 026 sdab) RGVSAYLSRPSPFDLFIRKSPTITCLVVDLAPSKGTVNLTWSRASGKPVNHSTRKEEKQRNGTLTVTSTLPVGTRDWIEGETYQCRVTHPHLPRALMRSTTKTSGPRAAPEVYAFATPEWPGSRDKRTLACLIQNFMPEDISVQWLHNEVQLPDARHSTTQPRKTKGSGFFVFSRLEVTRAEWEQKDEFICRAVHEAASPSQTVQRAVSVNP |  | binds
